Assay results as given in article PMC2704292.

Biological target: actin of the thin filaments of rabbit psoas myofibrils (rabbit (endogenous in psoas myofibrils)) (UniProt P68135)
Assay: co-sedimentation

average level of replacement of Tm in reconstituted myofibrils: 96%
Substance: rabbit fast skeletal tropomyosin (from UniProt P58772 1-284; P58776 1-284) (natural protein)
